Molecular target: mp2k6_human MAP2K6 (UniProt P52564)
Sequence of UniProt P52564 (P52564 whole entry): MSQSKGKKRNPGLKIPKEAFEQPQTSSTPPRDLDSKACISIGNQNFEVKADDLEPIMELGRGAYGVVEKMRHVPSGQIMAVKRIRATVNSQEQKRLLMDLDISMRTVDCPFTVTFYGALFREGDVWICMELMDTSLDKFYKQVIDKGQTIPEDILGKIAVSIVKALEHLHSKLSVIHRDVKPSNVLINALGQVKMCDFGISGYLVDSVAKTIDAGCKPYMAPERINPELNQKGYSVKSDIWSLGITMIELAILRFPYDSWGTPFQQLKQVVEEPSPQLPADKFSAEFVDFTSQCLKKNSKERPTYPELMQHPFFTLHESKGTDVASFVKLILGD

Leucine-rich repeat serine/threonine-protein kinase 2 (Homo sapiens), Q5S007 R1441C
effect of a mutation on the interaction: increasing interaction

— IntAct's records for PubMed 20067578
